This experiment has as its target MBP-Vpu full length (HIV-1 Vpu fused to maltose binding protein) (HIV-1) (UniProt P05919). Briefly: cryo-EM structure; single-particle cryoEM of MBP-FL Vpu at 10 µM in 25 mM Tris pH 7.4, 150 mM NaCl, 100 µM TCEP; two maps at ~25 Å; protomers counted by docking MBP into the densities.

The record followed here is publication PMC10483038.

Regarding “MBP-Vpu full length (HIV-1 Vpu fused to maltose binding protein) (from UniProt P05919 1-82) (natural protein)”, the stoichiometry N – broadly, the number of molecules, sites or subunits per partner or assembly – was 6 to 7.
